Measurements as given in patent US20250340661A1, “ANTI CD40 ANTIBODY, ANTIGEN BINDING FRAGMENT AND MEDICAL USE THEREOF” (Jiangsu Hengrui Pharmaceuticals Co., Ltd., priority 2021, published 2025).

Columns and labels:
[1] = target: human CD40 on the cell surface (human) (UniProt P25942); experiment: cell-based or functional assay
[2] = target: human CD40 on the cell surface (human) (UniProt P25942); experiment: flow cytometry on Raji cells, AF647 anti-human IgG detection
[3] = target: human CD40 on the cell surface (human) (UniProt P25942); experiment: flow cytometry on Raji cells, Alexa Fluor 488 anti-human IgG (H+L) detection
[4] = target: his-tagged human CD40 (h-CD40-his) recombinant protein (human) (UniProt P25942); experiment: SPR (Biacore), antibody captured on anti-human Fc chip, His-tagged CD40 as analyte, 1:1 model
Sequence of his-tagged human CD40 (h-CD40-his) recombinant protein (human) (P25942 21-193 limits assumed): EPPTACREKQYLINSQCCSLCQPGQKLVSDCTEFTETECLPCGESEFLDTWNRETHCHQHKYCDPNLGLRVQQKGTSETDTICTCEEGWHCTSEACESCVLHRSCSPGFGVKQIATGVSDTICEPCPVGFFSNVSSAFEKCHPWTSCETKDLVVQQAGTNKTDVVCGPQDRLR

Sequence of human CD40 on the cell surface (human) (P25942 21-277): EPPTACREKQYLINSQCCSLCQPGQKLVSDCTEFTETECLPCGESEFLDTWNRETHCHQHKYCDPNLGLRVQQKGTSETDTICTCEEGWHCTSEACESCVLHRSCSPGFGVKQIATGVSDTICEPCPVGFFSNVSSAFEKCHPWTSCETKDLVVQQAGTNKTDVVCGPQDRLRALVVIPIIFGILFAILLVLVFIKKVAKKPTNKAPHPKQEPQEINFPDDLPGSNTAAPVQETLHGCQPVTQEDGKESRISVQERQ

- B cell activation assay, CD19+CD69+ % IC50 [1]: 0.14 nM
- B cell activation assay, CD19+CD69+ % Maximum inhibition rate [1]: 95%
- B cell activation assay, CD19+CD69+ MFI IC50 [1]: 0.07 nM
- B cell activation assay, CD19+CD69+ MFI Maximum inhibition rate [1]: 110%
- IC50 for the inhibition of CD40 reporter gene cell activity (Assay 1) [1]: 0.36 nM
- IC50 for the inhibition of CD40 reporter gene cell activity (Assay 2) [1]: 0.35 nM
- IC50 in DC cell activation assay system, CD80 MFI [1]: 1.19 nM
- IC50 in DC cell activation assay system, CD86 MFI [1]: 1.93 nM
- IC50 in DC cell activation assay system, IL-12/23 p40 [1]: 0.68 nM
- IC50 in DC cell activation assay system, TNFα [1]: 0.35 nM
- reporter gene cell activity IC50 (HEK-Blue CD40L cells, SEAP) [1]: 0.272 nM
- EC50 [2]: 2.41 nM
- EC50 [3]: 1.01 nM
- Kd [4]: 0.205 nM
- koff [4]: 0.000141 s⁻¹
- kon [4]: 688000 M⁻¹ s⁻¹
Substance: anti-CD40 antagonistic antibody CFZ533 (iscalimab)
